The text below walks through data of patent US20090136484A1.

The target in assay [1] is T1, Biotin-… (epitope sequence from candidal Hsp90) (Candida). Put plainly: ELISA, biotinylated peptide on streptavidin plate, anti-His-HRP detection; Site 1; sample in 0.5 M urea, 0.2 M L-arginine pH 9.5.
Assay [2] concerns the target T1, Biotin-… (epitope sequence from …). The assay is described as follows: ELISA, biotinylated peptide on streptavidin plate, anti-His-HRP detection; Site 1; sample in 50 mM Tris, 1 M sucrose, ~0.2% Tween20, 3 mM DTT, pH 3.0. A general note: ELISA stands for enzyme-linked immunosorbent assay.
Assay [3] shares this target. Put plainly: ELISA, biotinylated peptide on streptavidin plate, anti-His-HRP detection; Site 1; sample in 50 mM Tris, pH 9.0.
The target is the same in assay [4]. Put plainly: ELISA, biotinylated peptide on streptavidin plate, anti-His-HRP detection; Site 1; sample in 50 mM Tris, 3 mM DTT, pH 9.0.
The target is the same in assay [5]. Put plainly: ELISA, biotinylated peptide on streptavidin plate, anti-His-HRP detection; Site 2; sample in 0.5 M urea, 0.2 M L-arginine pH 9.5.
Assay [6] shares this target. Put plainly: ELISA, biotinylated peptide on streptavidin plate, anti-His-HRP detection; Site 2; sample in 50 mM Tris, pH 9.0.
For assay [7] the target is unchanged. Put plainly: ELISA, biotinylated peptide on streptavidin plate, anti-His-HRP detection; Site 2; sample in 50 mM Tris, 1 M sucrose, ~0.2% Tween20, 3 mM DTT, pH 3.0.
Assay [8] shares this target. Put plainly: ELISA, biotinylated peptide on streptavidin plate, anti-His-HRP detection; Site 2; sample in 50 mM Tris, 3 mM DTT, pH 9.0.

B1: MYC123 ("wild type" Mycograb) scFv peptide (scFv)
scFv: MAEVQLVESGAEVKKPGESLRISCKGSGCIISSYWISWVRQMPGKGLEWMGKIDPGDSYINYSPSFQGHVTISADKSINTAYLQWNSLKASDTAMYYCARGGRDFGDSFDYWGQGTLVTVSSGGGGSGGGGSGGGGSDVVMTQSPSFLSAFVGDRITITCRASSGISRYLAWYQQAPGKAPKLLIYAASTLQTGVPSRFSGSGSGTEFTLTINSLQPEDFATYYCQHLNSYPLTFGGGTKVDIKRAAALEHHHHHH
Turning to B1, the ELISA activity [%] compared with the reference standard turned out to be 90% in assay [1]; 135% in assay [2]; 71% in assay [3]; 85% in assay [4]; 78% in assay [5]; 95% in assay [6]. The ELISA activity [%] compared with the reference standard in assay [7] was determined as 130%; in assay [8], 131%.
